Molecular target: BTN3A expressed at the cell surface (human), O00481
Experiment: cell-based or functional assay

Chain of BTN3A expressed at the cell surface (human), O00481 (O00481 30-513): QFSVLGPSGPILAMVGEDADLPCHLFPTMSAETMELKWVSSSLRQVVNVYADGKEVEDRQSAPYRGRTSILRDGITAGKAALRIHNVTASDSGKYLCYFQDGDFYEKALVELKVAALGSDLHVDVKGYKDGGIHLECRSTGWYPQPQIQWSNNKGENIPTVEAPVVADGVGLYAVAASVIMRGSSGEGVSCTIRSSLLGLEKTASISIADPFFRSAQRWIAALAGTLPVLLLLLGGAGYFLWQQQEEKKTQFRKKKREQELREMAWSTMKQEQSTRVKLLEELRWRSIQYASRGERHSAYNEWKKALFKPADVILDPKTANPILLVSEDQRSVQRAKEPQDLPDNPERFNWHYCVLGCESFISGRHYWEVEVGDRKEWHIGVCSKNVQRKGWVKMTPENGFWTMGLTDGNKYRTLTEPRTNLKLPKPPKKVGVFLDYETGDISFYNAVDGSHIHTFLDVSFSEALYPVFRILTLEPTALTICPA

Jurkat-Vy9Vo2 TCR MOP activation at 0.5 nM (fold-change to medium) | Jurkat-Vy9Vo2 TCR MOP activation at 5 nM (fold-change to medium) | Binder
0.9 | 1.1 | bsAb034 (bispecific antibody, not shown: small tags and cut ends; a dimerising Fc or GST) heavy (part 1 of 2): QVQLVQSGVEVKKPGASVKVSCKASGYTFTNYYMYWVRQAPGQGLEWMGGINPSNGGTNFNEKFKNRVTLTTDSSTTTAYMELKSLQFDDTAVYYCARRDYRFDMGFDYWGQGTTVTVSS heavy (part 2 of 2): GGGGSGGGGSGGGGSGGGGSQVQLVQSGAEVKKPGASVKLSCKASGYIFTRYYMYWVKQRPGQGLEWIGEINPNNGGTKFNEKFKNRATLTVDKSISTAYMELSRLRSDDTAVYYCSREDDYDGTPFAMDYWGQGTLVTVSSGGGGSGGGGSGGGGSGGGGSDIQMTQSPSSLSASVGDRVTITCHASQNINVWLSWYQQKPGKAPKLLIYKASNLHTGVPSRFTGSGSGTDFTFTISSLQPEDIATYYCQQGQTYPYTFGQGTKLEIK heavy: GGGGSGGGGSGGGGSGGGGSQVQLVQSGAEVKKPGASVKLSCKASGYIFTRYYMYWVKQRPGQGLEWIGEINPNNGGTKFNEKFKNRATLTVDKSISTAYMELSRLRSDDTAVYYCSREDDYDGTPFAMDYWGQGTLVTVSSGGGGSGGGGSGGGGSGGGGSDIQMTQSPSSLSASVGDRVTITCHASQNINVWLSWYQQKPGKAPKLLIYKASNLHTGVPSRFTGSGSGTDFTFTISSLQPEDIATYYCQQGQTYPYTFGQGTKLEIK light: EIVLTQSPATLSLSPGERATLSCRASKGVSTSGYSYLHWYQQKPGQAPRLLIYLASYLESGVPARFSGSGSGTDFTLTISSLEPEDFAVYYCQHSRDLPLTFGGGTKVEIKRTVAAPSVFIFPPSDEQLKSGTASVVCLLNNFYPREAKVQWKVDNALQSGNSQESVTEQDSKDSTYSLSSTLTLSKADYEKHKVYACEVTHQGLSSPVTKSFNRGEC
1.2 | 1.7 | bsAb037 (bispecific antibody, not shown: small tags and cut ends; a dimerising Fc or GST) heavy 1: QVQLVQSGVEVKKPGASVKVSCKASGYTFTNYYMYWVRQAPGQGLEWMGGINPSNGGTNFNEKFKNRVTLTTDSSTTTAYMELKSLQFDDTAVYYCARRDYRFDMGFDYWGQGTTVTVSS heavy 2: DIQMTQSPSSLSASVGDRVTITCHASQNINVWLSWYQQKPGKAPKLLIYKASNLHTGVPSRFTGSGSGTDFTFTISSLQPEDIATYYCQQGQTYPYTFGQGTKLEIKGGGGSGGGGSGGGGSGGGGSQVQLVQSGAEVKKPGASVKLSCKASGYIFTRYYMYWVKQRPGQGLEWIGEINPNNGGTKFNEKFKNRATLTVDKSISTAYMELSRLRSDDTAVYYCSREDDYDGTPFAMDYWGQGTLVTVSSGGGGSGGGGSGGGGSGGGGS light: EIVLTQSPATLSLSPGERATLSCRASKGVSTSGYSYLHWYQQKPGQAPRLLIYLASYLESGVPARFSGSGSGTDFTLTISSLEPEDFAVYYCQHSRDLPLTFGGGTKVEIKRTVAAPSVFIFPPSDEQLKSGTASVVCLLNNFYPREAKVQWKVDNALQSGNSQESVTEQDSKDSTYSLSSTLTLSKADYEKHKVYACEVTHQGLSSPVTKSFNRGECGGGGSGGGGSGGGGSGGGGSQVQLVQSGAEVKKPGASVKLSCKASGYIFTRYYMYWVKQRPGQGLEWIGEINPNNGGTKFNEKFKNRATLTVDKSISTAYMELSRLRSDDTAVYYCSREDDYDGTPFAMDYWGQGTLVTVSSGGGGSGGGGSGGGGSGGGGSDIQMTQSPSSLSASVGDRVTITCHASQNINVWLSWYQQKPGKAPKLLIYKASNLHTGVPSRFTGSGSGTDFTFTISSLQPEDIATYYCQQGQTYPYTFGQGTKLEIK
